Reference: the DeepSol protein solubility set

Assay: soluble on expression in E. coli; label from the status in PepcDB or PDB records

| Sequence | soluble on expression in E. coli |
| --- | --- |
| TSALIERIDAIIVDLPTIRPHKLAMHTMQQQTLVVLRVRCSDGVEGIGEATTIGGLAYGYESPEGIKANIDAHLAPALIGLAADNINAAMLKLDALAKGNTFAKSGIESALLDAQGKRLGLPVSELLGGRVRDSLEVAWTLASGDTARDIAEARHMLEIRRHRVFKLKIGANPVEQNLKHVVTIKRELGDSASVRVDVNQYWDESQAIRACQVLGDNGIDLIEQPISRINRGGQVRLNQRTPAPIMADESIESVEDAFSLAADGAASIFALKIAKNGGPRAVLRTAQIAEAAGIGLYGGTMLEGSIGTLASAHAFLTLRQLTWGTELFGPLLLTEEIVNEPPQYRDFQLHIPRTPGLGLTLDEARLARFARR | soluble |
| MSAEKPEVIITYCIQCQWLLRAAWLAQELLSTFSDDLGKVSLQPGTGGAFRITCDGVQLWERKADGGFPEAKVLKQRLRDQIDPARDLGHNDRQTPSNPQ | soluble |
| MGSDKIHHHHHHMVWRDAEGQVHALEDRCPHRGARLSLGWNLGDRVACWYHGVEVRADGVVADVPAVHECPMTGTKCLKSYPVIEQHGAIFIWFGIDANEQPAPLEFPEQLASEEWSSFLCQADWKVNHQYAIDNVMDPMHGTYLHCTSHSMAEGERTAEMKHRTTENGFVFEKEGQTGVNFDWVEYGSTGASWLRLSIPYRKQFGPGGEFWIVGYATPIDANNTRVFFWRCRKVSGWQRNVWRFLYRNHLEQLHWDVLEQDRIILENLAPNARAREFLYQHDVGLARLRRLMKKEAEKQLKKIAALNASNRIEMQEEAHG | not soluble |
| MPIPNNPGAGENAFDPVFVNDDDGYDLDSFMIPAHYKKYLTKVLVPNGVIKNRIEKLAYDIKKVYNNEEFHILCLLKGSRGFFTALLKHLSRIHNYSAVETSKPLFGEHYVRVKSYCNDQSTGTLEIVSEDLSCLKGKHVLIVEDIIDTGKTLVKFCEYLKKFEIKTVAIACLFIKRTPLWNGFKADFVGFSIPDHFVVGYSLDYNEIFRDLDHCCLVNDEGKKKYKATSL | soluble |
| MSYQSLLTHRCDIYHLQEKKENRKQKFGVPVEDVQPVFSYPDEPDIENQPCYFTEKSQSIIQQESNVSIYQSFLVHFPATADIRVNDRAVWDGTAYKLQKPRKIRNHHWEVTAVREVEYLLEHHHHHH | soluble |
| MSTEDALCFTGEEYARHVREYWRGVAESDGFDSEDIRSPVVLTGLFHYDCQSGRRYPDPLLVKRYALLGLHRFNILQGTSFELDALQKFNKTMNLTSSYYITLLANEPGAIPLQKTFQVRVDERKYDTLDLTVAIARLKKDQNEAAETTKEPFVPHFCCSAVSDGVFQGPLPDWPSDDALRHDRNRFYELEKSEWQATDWISLYLELLILATDRGMFGVAQTGLPQVQILKVVIETEEENEKPLDKRLNARRAHVYITFTGLPKSPRLVEIGEHVERKAIIRRVIDDSGYLTLLGKFWSGKDTEQRSKTRQSEEKVESSQKRSRLC | soluble |
| MIGRKEKERERPYYRDPDDPEYIKDLQRPAVIKEDLSEMERRKRVQQILESKSFCHELEEVIRQECDTARTDPDHLQVLQKLSDLTVPQGNMSFGNLHTYGGNTIAIADLRGNEKYSKAERIQRNKLACLFRLADLFQWSQGIHNEISYRTNDEDNTFLMNPFGLLYHEITAATIVKIDENGKILDCGTLKAGVNQPAFLLHSAIYKAHPMVRCILHMHTAIVAAVASMKCGLLPLCKEAMVLGPVGYHDYQDIGDDDIQFDEIIANLGDKNVLFLRNQGFLVVGDTIEHATFLANNTVIACETQVRAARAGLDNLIIPEEKAIQRAFRNSRNTNSLKRNGTVDWRVGELEWESWMRVLDHANFQTGHVYRQPQLRPKSAMSTSMVNNNDVAVPPTTSAYGQIDETNLESVSAHRLALLRKEQERVRWMNSPNAYQKVEFLEYGADNPKKITKWVHDVNVPSASGTPVKISSVHQFSPASSNPKEFKEKQKAIKENNRLGTLSAGPQSQILDSVTYEDIALLIKPDNDGTVGQSSTADRAILIGTASKGIIDRQFQHHAQVYHQIYAPNPFSVETDADIKKYVDMVKAKNSQSAPVSARSGYSQYDEVEADTVSLMQGVREHKLSQAALSASDDGLNAGISPNNVRTSEESVNTSYMSQSVVFDYPDILRPIYRQETYV | not soluble |
| MAPHPEAAALLARSHRLGADPRNTNYAGGNASAKGTATDPVTGGDVELMWVKGSGGDLGTLTEAGLAVLRLDRLHALKGVYPGVEREDEMVAAFDYCLHGKGGAAPSIDTAMHGLVDAAHVDHLHPDSGIALACAADGEKLTAECFGDSVAWVPWRRPGFQLGLDIAAVKEANPQTIGCVLGGHGITAWGATAEECERNSLHIIRTAEAFLAERGKAEPFGPVIEGYAALEHHHHHH | not soluble |
| IAAGGSHVEAAPQEEWKKHFIHTGELGSAEFASVMSHTTSAMKSVFEQVNAPYSGMDPKALEDAINAVDLDNKNAPLKSVIDDVAELVAKNAIFTQHPDCIAHLHTPPLMPAVAAEAMIAALNQSMDSWDQASSATYVEQKVVNWLCDKYDLSEKADGIFTSGGTQSNQMGLMLARDWIADKLSGHSIQKLGLPDYADKLRIVCSKKSHFTVQKSASWMGLGEKAVMTVDANADGTMDITKLDEVIAQAKAEGLIPFAIVGTAGTTDHGAIDDLDFIADMAVKHDMWMHVDGAYGGALILSSHKSRLKGVERAHSISVDFHKLFYQTISCGALLVNDKSNFKFLLHHADYLNREHDELPNLVDKSIATTKRFDALKVFMTMQNVGPKALGDMYDHLLAQTLEVADMIRTNDQFELLAEPSLSTVLFRATHETADLDELNKALRLEALTRGIAVLGETIVDGKTALKFTILNPCLTTSDFESLLSKINMLAVELV | soluble |
| MAMQFVMRLAREFRRADWRRMLSDMSATELGEWGDYFRMQSFSDVWMDAQFASLKALIVRMVSGSSDAAVADFSLLPEENGIPERTDEELMHLGEGISGGVRYGPDSQPGHLEHHHHHH | not soluble |
| NLKVEFYNSNPSDTTNSINPQFKVTNTGSSAIDLSKLTLRYYYTVDGQKDQTFWCDHAAIIGSNGSYNGITSNVKGTFVKMSSSTNNADTYLEISFTGGTLEPGAHVQIQGRFAKNDWSNYTQSNDYSFKSASQFVEWDQVTAYLNGVLVWGKEP | soluble |
| MSLSIFKRKTKQVNPFEQGWLTDLIDIHCHLLPAVDDGSKSIEETLSLIDLLEEIGVKQHILTPHIMEEYPSNDAIFLRARFEELLAAITPDKASRLRLAAEYMLDVAFLDRLAEPLLTLGDRYILVETSYMAPPIGLMGLLADLRFKGLSPVLAHPERYLYMEEKDYVAIKKQGVMFQLNLFSLFGAYNSSASEKAYALLEAGYYDLIGTDIHHLQPIARLLSEASLPPDLEGKIKSLVENNTRLFSEGHHHHHH | soluble |
| MSLGIGHPMWVGWCIIIAMRSIPASVESSVLRWARESCGLTEVAAARKLGLPDDRVAAWEVGEVVPTIAQLRKAAEVYKRSLAVFFLSEPPEGFDTLRDFRRLDGAASGQWTPGLHEEFRRAHTQRDFALELADAEDREIPGAWRLPLSGDEADADIAARIRKALIEVSPLPIPVASVDPYEHLNAWVSAIETSGVLVLATRGGKVAIDEMRGMCLYFDELPVIVLNGSDHPRPRLFSLLHEFVHVVLHTEGLCDVIADAHPSTQDRSLEARCNAIAAAVLMPADVVRARPEVIVRSETPSSWDYESLRPVAAHFGVSAEAFLRRLSTLGIVPVEVYRQRRAEFIAAHEDEAEGHHHHHH | soluble |
| MLSGVGAPVGKQMLAGTEVAAMQINKAGGLLGREVELVIRDDKYNSSESVAVARELAGDGINLLLGGSQTVTALGLAPLAPELNMAVMIVAAAGMPVTHELFNPNIFRATANNYTQYSSLGRVLIEQNPDVRTWVSLAPDGDFGRDSALFFGKAVEKYAPGEKPTVLDTIYTQATATDFRTQINQLMSSDAEGLYIGIAASAQISFFQQARSVGLYDKFKAIGEVGNGDITGKAMGRNTHPNLWSVCHWIYNAEPFASNPVSKQLYEDYVTLKGDEMPSAQVAAGHRAAMAIFEGIRAAGSTETEAVLAAIEDVEFETVGGPVSFRKEDHQLVNTNYYSQMGPSREEPFFAFNKVVSIDAAEMIEPATPGKAFDISELPQLEHHHHHH | not soluble |
| MHKAGLLGLCARAWNSVRMASSGMTRRDPLANKVALVTASTDGIGFAIARRLAQDGAHVVVSSRKQQNVDQAVATLQGEGLSVTGTVCHVGKAEDRERLVATAVKLHGGIDILVSNAAVNPFFGSIMDVTEEVWDKTLDINVKAPALMTKAVVPEMEKRGGGSVVIVSSIAAFSPSPGFSPYNVSKTALLGLTKTLAIELAPRNIRVNCLAPGLIKTSFSRMLWMDKEKEESMKETLRIRRLGEPEDCAGIVSFLCSEDASYITGETVVVGGGTPSRL | not soluble |
| MNSSPKMKHDVFISFRSKDTRDNFVSHLCGCLRRKRIKTFLYDELPADERYEESLKAIEVSKISVIVFSENFGDSRWCLDEVVAILKCKEKFGQIVIPVLYHVDPLDIENQTGSFGDAFAKRRDKAEQLQEWKDSFTEAINLPGWSTAYLRYNPKLILSIKVTVVSELQDVLISGINIMITAFSTCK | soluble |
| MHTKPPIERIMYIELRTSLELFRSDLVDLEALANAAKEALEQLPYIPKEPCGKGEDDPLSGPESALRTGRLCGLVCCTATAAEGALSTCSKLIDWAYENEPEGVDDAVLVDDIDDDDDDDDDGSNGANGGGGANGSGNGSNGSGNGSPPDGGVEGAAPSLDADELAQARPSRGGIALDLAQCATTTDRPVA | not soluble |
| MGSDKIHHHHHHMSHRKALLIHNGNAANKNIEKALGAVVPVLSHHLDEVIIKQTKKKDHAYHFCRSIDDSVDTVFILGGDGTIHQCINAISALERKPAVGILPGGTSNDFSRVLGIPQNLAKAAEALMAGKKTSVDVCQMNDRYFLNFWGIGLIAETSNQINETEKALLGKISYFTSALRTVSSAASFPMTLKIDGEEIKEEAVMLLVMNGQYIGTNRIPLPDASIEDGLLDVLICRNTNLTALRELMSMEQGSIDRFTGELSYVQASRIEIETDTAKKADMDGEVYTHTPAVIQVLPQHIDMLVPANE | not soluble |
| MGHHHHHHSHMVETVSTKNTKNWHAPVVPAAWEAEAGESLEPWRWRLQWAGIASLHSSLGDRARLRLKKKKKKRKGHFPIQKSRKYVPFLKGICSSTPVGISRQVGQETEKRNKTQRQSIEKERGAQGTGALSLRGPAGALVSEFPQYLLIIIFTILARGV | not soluble |
| MGSDKIHHHHHHMKHLLAGILVWVIWGLCSCQSDGKVIIPSPIYVDNHYHGPADPEITWNPKTEEWMIFYTSRRPFKDQASYVGTPVGVAVSKDFVHWKFAGYCSFDGVGGQPDSEKTYWAPGVIVEGDSAHMFVTLKDDSTPVWGGPSNIVHFSAPLEDMISGWRRVNTVVDTPISIDATVVKNGDRWDMWYRDRPTEDTGGLYYAQSNDLYHWTLKGLAKGDINNVEVTKHTYQEGAYAFQWKGYFWIIADPHKGLAVYRSKDAENWEYQGIVMYEPGTRFFDNTRARHPSVIIRNDRAFIVYHVQPFLGYNPNTHEAGDDVYQKLSFLQMAELEFKDGKLICDRNKVLYK | not soluble |
| QGKTTVTAALARLHARQGRRVRVFKCGPDFLDPMILARASGAPVYQLDLWMVGEAEARRLLARAAGEADLILIEGVMGLFDGNPSAADLARRFGVPVLGVINGAAMAQTFGALAYGLAHFQPDLPFSGVLGNRVGSQRHSDILRDCLPPGMRWFGGLPRSAEFELPSRHLGLVQAEELADLDARLDAAADALRASAETDLPEPVTFEVPAPAPLQRSLEGVRIGVARDASFAFLYQANLDLLRELGAELAFFSPLQDQALPAVDSLYLPGGYPELHLGRLQGNRAMAEAIRAHHAAGKPLLAECGGMLYLLDCLEDADGERGELLGLLPGRARLQKRLTALALQEVELPEGRLRGHTFHHSTLDCAVEPLARGVCPNGRNTAEAVFRLGRLTASYIHFYLPSNPQAAAALLAPARDA | not soluble |
